From publication PMC11052993, “Functional implication of the homotrimeric multidomain vacuolar sorting receptor 1 (VSR1) from Arabidopsis thaliana” (Scientific Reports, 2024) come the findings set out here.

A word on the stoichiometry N: it is the number of molecules, sites or subunits per partner or assembly.

This series deals with the molecule itself. Nature of the series: crystal structure; space group P2(1)3, one molecule in the asymmetric unit, trimer built by crystallographic three-fold symmetry; 3.5 Å dataset, molecular replacement with PDB 4TJV.

B1: luminal domain of vacuolar sorting receptor 1 (VSR1) from Arabidopsis thaliana, residues 1 to 560 (domain or fragment, UniProt P93026 23-560, looked up)
chain: VEKNNLKVTSPDSIKGIYECAIGNFGVPQYGGTLVGTVVYPKSNQKACKSYSDFDISFKSKPGRLPTFVLIDRGDCYFTLKAWIAQQAGAAAILVADSKAEPLITMDTPEEDKSDADYLQNITIPSALITKTLGDSIKSALSGGDMVNMKLDWTESVPHPDERVEYELWTNSNDECGKKCDTQIEFLKNFKGAAQILEKGGHTQFTPHYITWYCPEAFTLSKQCKSQCINHGRYCAPDPEQDFTKGYDGKDVVVQNLRQACVYRVMNDTGKPWVWWDYVTDFAIRCPMKEKKYTKECADGIIKSLGIDLKKVDKCIGDPEADVENPVLKAEQESQIGKGSRGDVTILPTLVVNNRQYRGKLEKGAVLKAMCSGFQESTEPAICLTEDLETNECLENNGGCWQDKAANITACRDTFRGRLCECPTVQGVKFVGDGYTHCKASGALHCGINNGGCWRESRGGFTYSACVDDHSKDCKCPLGFKGDGVKNCEDVDECKEKTVCQCPECKCKNTWGSYECSCSNGLLYMREHDTCIGSGKVG
modifications: N-glycosylation at Asn289 (two N-acetylglucosamine)
notes: signal peptide in the construct; vacuolar sorting receptor 1 (VSR1), Arabidopsis thaliana, luminal part, residues 1 to 560; the model of the structure runs from Phe21 to Ala465 (Ser120-Asp137 disordered); Trimer by crystallographic three-fold symmetry; one molecule in the asymmetric unit; also called AtVSR1; full-length VSR1 luminal domain
In the case of B1, the “stoichiometry N” value was determined as 3.
